# T1: ubiquitin E3 ligase TRIM59 (human (endogenous in 293T), UniProt Q8IWR1 1-403)
# T1 construct: TRIM59, ubiquitin E3 ligase primarily located in the ER, in 293T cells
# T1 sequence (looked up): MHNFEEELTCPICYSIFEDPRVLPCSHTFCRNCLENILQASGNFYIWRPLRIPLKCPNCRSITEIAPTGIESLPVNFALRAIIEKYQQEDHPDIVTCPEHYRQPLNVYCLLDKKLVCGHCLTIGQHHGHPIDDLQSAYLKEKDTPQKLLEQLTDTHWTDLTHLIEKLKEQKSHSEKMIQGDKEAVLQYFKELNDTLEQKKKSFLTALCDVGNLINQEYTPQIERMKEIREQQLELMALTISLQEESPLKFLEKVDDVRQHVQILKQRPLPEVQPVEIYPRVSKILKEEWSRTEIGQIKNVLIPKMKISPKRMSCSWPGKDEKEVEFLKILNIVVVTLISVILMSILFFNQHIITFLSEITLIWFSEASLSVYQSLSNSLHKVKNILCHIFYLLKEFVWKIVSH
# Target: T1, ubiquitin E3 ligase TRIM59
# Test: co-IP
# Settings: partners not purified
binder,measurement,value
"SARS-CoV-2 ORF3a dG188 mutant, HA-tagged (natural protein, also called G188 deletion mutant; E-ORF3a (represented by the dG188 mutant); not shown: HA, C-terminal, kept) MDLFMRIFTIGTVTLKQGEIKDATPSDFVRATATIPIQASLPFGWLIVGVALLAVFQSASKIITLKKRWQLALSKGVHFVCNLLLLFVTVYSHLLLVAAGLEAPFLYLYALVYFLQSINFVRIIMRLWLCWKCRSKNPLLYDANYFLCWHTNCYDYCIPYNSVTSSIVITSGDGTTSPISEHDYQIGYTEKWESGVKDCVVLHSYFTSDYYQLYSTQLSTDTGVEHVTFFIYNKIVDEPEEHVQIHTIDGSSGVVNPVMEPIYDEPTTTTSVPL",fold of pulled-down ORF3a against WT ORF3a (densitometry),~1.5 fold

# Reference: article PMC10790703 (mBio, 2023)
